Test results taken from patent publication US9447157B2, “Nitration shielding peptides and methods of use thereof” (Augusta University Research Institute, Inc., priority 2013, dated 2016).
Entries after “also recorded” stand apart in the source; their conditions may differ. No end group written: not given here. *: point of attachment. X1 = 3‑carboxy‑2,2,5,5‑tetramethyl‑3‑pyrrolin‑1‑yloxy, CC1(C)C=C(C(=O)*)C(C)(C)N1[O]

Experiments:
RhoA [1] = target: T1, RhoA (Homo sapiens, UniProt P61586); experiment: Stopped-flow kinetic analysis of mant-GDP/mant-GTP binding to RhoA; set-up: polyHis (6His); made in house; host or cells: Escherichia coli BL21; Binding constant of GDP to RhoA / GTP binding constant of RhoA: unit not given here; conditions: stop-flow, RhoA with or without peroxynitrite (100 μM, 30 min); for Binding constant of GDP to RhoA: mant-GDP; for GTP binding constant of RhoA: mant-GTP
T1 sequence (P61586 whole entry): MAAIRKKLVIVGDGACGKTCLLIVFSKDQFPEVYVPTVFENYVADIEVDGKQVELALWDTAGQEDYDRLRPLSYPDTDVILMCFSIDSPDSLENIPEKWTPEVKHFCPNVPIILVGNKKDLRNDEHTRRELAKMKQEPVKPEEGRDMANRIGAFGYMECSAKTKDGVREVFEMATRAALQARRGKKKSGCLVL
Method: RhoA was treated with authentic peroxynitrite (500 μM, 30 min) to induce tyrosine nitration in buffered solution. For kinetic analyses, 2 μM of either mart-GTP or -GDP was mixed with RhoA (0.1 μM) in a stopped-flow instrument (SX-20, […]). Increases in fluorescent intensity mant-nucleotide binding to RhoA were then measured using excitation 350 nm and cutoff filter 395 nm for 0.2-1 second. Acquired kinetic curves for 3-5 experiments were averaged and fitted using the Pro-kineticist software to determine observed binding constants.
To test the validity of the MD data kinetic studies were performed. His-tagged human RhoA construct was expressed in the Escherichia con BL21 strain. First, the bacterial lysate was purified by 6His-tag affinity on a Ni-NTA column. Second, the proteins in the elution fraction from the affinity purification were separated by size-exclusion chromatography (FIG. 11). The fraction containing RhoA was identified both by Coomassie blue staining and Western blot analysis. The recombinant purified RhoA was subjected to rapid flow kinetics to evaluate GDP and GTP binding using fluorescently labeled guanine nucleotides. Peroxynitrite decreases GDP binding to purified RhoA. Human recombinant RhoA was exposed to authentic peroxynitrite (100 μM, 30 min) on ice. The kinetics of binding fluorescently labeled GDP (FIG. 12A) or GTP (FIG. 12B) to RhoA was then performed using stop-flow analysis. Three measurements were averaged and fitted with bimolecular reaction equation. […] However, nitration of RhoA had no effect on the GTP binding constant ([…]).

[2] = test system: human lung microvascular endothelial cells (HLMVEC); experiment: Endothelial monolayer resistance (ECIS, TER) in LPS-challenged HLMVEC; type: cell-based; conditions: for Attenuation of LPS-mediated decrease in transendothelial resistance (TER) / barrier disruption: HLMVEC, LPS 1 EU/ml, MnTMPyP 25 μM, ETU 200 μM, 1400W 100 μM
Method: The electrical resistance of the endothelial cell monolayer was measured with the electrical cell impedance sensor (ECIS) technique. In this system, the cells are cultured on gold plated electrodes. The change in resistance across the monolayer is measured through an amplifier attached to the arrays. Each study was performed when the resistance reached a plateau. The data was normalized to the initial voltage and plotted as a normalized resistance.
To examine if protein nitration by peroxynitrite is a contributing factor in endothelial barrier disruption in response to LPS, transendothelial resistance (TER) was measured in HLMVEC in the presence or absence of the peroxynitrite scavenger, MnTmPyp. HLMVEC were challenged with LPS (1 EU/ml) in the presence or absence of the peroxynitrite scavenger, MnTMPyP (25 μM).
To evaluate the role played by NOS in the barrier dysfunction, HLMVEC were exposed to LPS in the presence or absence of ETU (a non-specific NOS inhibitor) or 1400W (to inhibit iNOS). HLMVEC were challenged with LPS (1 EU/ml) in the presence or absence of the general NOS inhibitor, ETU (200 μM) or the iNOS specific inhibitor, 1400W (100 μM). The LPS-mediated decrease in TER was attenuated in the presence of ETU, but not 1400W (FIG. 1B). The important role of eNOS was then confirmed using a siRNA approach. HLMVEC were transiently transfected with a siRNA against eNOS or a scrambled control siRNA. After 48 h, there was a significant knockdown of eNOS protein levels (50%), as determined by Western blotting. Reducing eNOS protein levels preserved HLMVEC barrier function when challenged with LPS (FIG. 1C).

RhoA [3] = target: T1, RhoA; experiment: RhoA activity, Rhotekin RBD pull-down, in LPS-treated HLMVEC; type: cell-based; set-up: endogenous in cells; host or cells: HLMVEC (human lung microvascular endothelial cells); conditions: MnTMPyP 25 μM 30 min pre-treatment, LPS 1 EU/ml 4 h
Method: RhoA activity levels were measured using the Rhotekin Rho Binding Domain (RBD) pull-down assay. Briefly, 2×10^6 cells were seeded in 10 cm dishes and incubated overnight in DMEM with 10% FBS and 5% antibiotics. The cells were then pretreated with the peroxynitrite scavenger, MynTMPyp (25 μM), for 30 min. The cells were treated with LPS (1 EU/ml) for 4 h. The level of active RhoA pulled down by the assay was measured by Western blot analysis (see above).

RhoA [4] = target: T1, RhoA; experiment: RhoA nitration, immunoprecipitation and 3-NT blot, in LPS-treated HLMVEC; type: cell-based; set-up: endogenous in cells; host or cells: HLMVEC (human lung microvascular endothelial cells); conditions: MnTMPyP, LPS 1 EU/ml 4 h
Source text: HLMVEC were lysed and centrifuged at 6,000×g and the supernatant collected as previously described (Sud, N., et al., Am. J. Physiol. Lung Cell Mol. Physiol. 293, L1444-1453 (2007); Sharma, S., et al., Am. J. Physiol. Lung Cell Mol. Physiol. 294, L46-56 (2008)). Cell extracts were separated on 4-20% gels and electrophoretically transferred to PVDF membrane (Bio-Rad), then blocked with 5% nonfat dry milk in Tris-buffered saline. The membranes were probed with antibodies to RhoA (Cell Signaling), eNOS (BD), iNOS (Cell Signaling), or 3-Nitrotyrosine (Calbiochem). Reactive bands were visualized using chemi-luminescence (Pierce) on a Kodak 440CF image station. Band intensity was quantified using Kodak 1D image processing software. Protein loading was normalized by re-probing with mouse anti-β-actin.
HLMVEC were homogenized in IP buffer (25 mM Hepes, pH 7.5, 150 mM NaCl, 1% NP-40, 10 mM MgCl2, 1 mM EDTA, 2% glycerol supplemented with protease inhibitors). To precipitate the bound protein, 10 μl of a protein A/G agarose suspension (EMD/Calbiochem) was added for 2 h at 4° C. The samples were then centrifuged at 14,000 rpm for 5 min, the supernatant removed, and the beads washed 3× with IP buffer. Twenty μl of 2× Laemmli buffer was added, the samples were boiled for 5 min, and analyzed as described above. Immunoprecipitation efficiency was normalized by re-probing with RhoA.

Recombinant human PKG-Iα = target: T2, Recombinant human PKG-Iα (Homo sapiens, UniProt Q13976); experiment: PKG-Iα activity assay with SIN-1 and shielding peptide; type: biochemical
T2 sequence (Q13976 2-671): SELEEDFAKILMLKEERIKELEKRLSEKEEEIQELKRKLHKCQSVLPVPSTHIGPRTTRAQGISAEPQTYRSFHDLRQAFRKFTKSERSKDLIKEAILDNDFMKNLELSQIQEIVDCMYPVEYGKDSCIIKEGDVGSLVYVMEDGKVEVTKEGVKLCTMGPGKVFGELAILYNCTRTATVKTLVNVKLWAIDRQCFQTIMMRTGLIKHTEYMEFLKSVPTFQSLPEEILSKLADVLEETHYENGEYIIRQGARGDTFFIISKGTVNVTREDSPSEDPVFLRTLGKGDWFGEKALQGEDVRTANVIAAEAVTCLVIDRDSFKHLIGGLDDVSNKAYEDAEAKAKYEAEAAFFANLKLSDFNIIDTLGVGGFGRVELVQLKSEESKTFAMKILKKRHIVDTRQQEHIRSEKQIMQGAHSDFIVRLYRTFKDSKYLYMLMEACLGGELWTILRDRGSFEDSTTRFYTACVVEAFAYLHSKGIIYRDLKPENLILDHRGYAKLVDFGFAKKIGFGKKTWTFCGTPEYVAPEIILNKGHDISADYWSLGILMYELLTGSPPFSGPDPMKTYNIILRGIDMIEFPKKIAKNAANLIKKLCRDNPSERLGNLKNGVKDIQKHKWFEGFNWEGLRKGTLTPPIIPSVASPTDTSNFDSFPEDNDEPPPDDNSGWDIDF
Method: A PKG-Iα activity assay was carried out using HLMVEC. Recombinant human PKG-Iα18 was exposed to the peroxynitrite generator, SIN-1 (200 μM, 10 min) with increasing concentrations of the shielding peptide (0-10 μg).

HLMVEC = experiment: Total protein nitration (3-NT/β-actin) in LPS-treated HLMVEC; type: cell-based, human; conditions: peptide 100 ng/ml 30 min, then LPS 1 EU/ml
Source text: Cell extracts were separated on 4-20% gels and electrophoretically transferred to PVDF membrane (Bio-Rad), then blocked with 5% nonfat dry milk in Tris-buffered saline. The membranes were probed with antibodies to RhoA (Cell Signaling), eNOS (BD), iNOS (Cell Signaling), or 3-Nitrotyrosine (Calbiochem). Reactive bands were visualized using chemi-luminescence (Pierce) on a Kodak 440CF image station. Band intensity was quantified using Kodak 1D image processing software. Protein loading was normalized by re-probing with mouse anti-β-actin.

RhoA [5] = target: T3, RhoA (Mus musculus, UniProt Q9QUI0); experiment: RhoA activity, nitration and protein in lungs of LPS treated mice; type: in vivo
T3 construct: from tissue; host or cells: mouse lung (male C57Bl/6)
T3 sequence (Q9QUI0 whole entry): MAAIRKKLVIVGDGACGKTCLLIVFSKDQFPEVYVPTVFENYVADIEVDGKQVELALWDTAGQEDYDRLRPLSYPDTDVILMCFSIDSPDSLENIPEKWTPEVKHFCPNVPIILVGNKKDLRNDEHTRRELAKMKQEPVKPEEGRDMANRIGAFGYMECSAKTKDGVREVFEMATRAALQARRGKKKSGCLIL
Method: The Committee on Animal Research at Georgia Regents University approved all animal protocols and procedures. Stock solutions of Escherichia coli LPS (0111:B4) were prepared in saline. […] Mice were examined 24 h after LPS treatment. At the end of the treatment lungs were flushed with 3 ml of ice-cold PBS (5 mM EDTA), excised, dipped in saline and blotted dry. A portion of the lung was quickly snap-frozen in liquid nitrogen, crushed to powder in a pre-chilled mortar and stored at -80° C. The remaining lung tissue was stored at -80° C. […] After 24 h, mice were sacrificed and lung tissue was obtained to determine RhoA activity and RhoA nitration, LPS induced RhoA activation in the mouse lung as in HLMVEC (FIG. 7A). […] Total RhoA protein levels and basal RhoA nitration were measured. […] Likewise, basal RhoA nitration levels (FIG. 7D) were unchanged.

RhoA [6] = target: T1, RhoA; experiment: Biotin pull down assay of peptide binding to RhoA; set-up: polyHis (6His); made in house; host or cells: Escherichia coli BL21; conditions: peptide 100 ng/ml, recombinant human RhoA 0.1 mg
Method: To evaluate the ability of each peptide to bind to RhoA each peptide (100 ng/ml) was mixed with recombinant human RhoA (0.1 mg) for the biotin pull down assay.

RhoA: His-tagged human recombinant purified RhoA
Binding constant of GDP to RhoA (RhoA [1]): 19.8
GTP binding constant of RhoA (RhoA [1]): 38.7

MnTMPyP
Attenuation of LPS-mediated decrease in transendothelial resistance (TER) / barrier disruption [2]: significantly attenuated
Attenuation of LPS-induced increase in RhoA activity (RhoA [3]): attenuated
Attenuation of LPS-induced RhoA nitration (RhoA [4]): attenuated

RhoA+ONOO: human recombinant RhoA exposed to authentic peroxynitrite (nitrated)
Binding constant of GDP to RhoA (RhoA [1]): 4.03
GTP binding constant of RhoA (RhoA [1]): 36.2

GALRQKNVK(X)-amide (SEQ ID NO:29), where X is 3-carboxy-2,2,5,5-tetramethyl-3-pyrrolin-1-yloxy (nitroxide) (GALRQKNVK(X1)-NH2; N-terminus assumed; SMILES CC(C)C[C@H](NC(=O)[C@H](C)NC(=O)CN)C(=O)N[C@@H](CCCNC(=N)N)C(=O)N[C@@H](CCC(N)=O)C(=O)N[C@@H](CCCCN)C(=O)N[C@@H](CC(N)=O)C(=O)N[C@H](C(=O)N[C@@H](CCCCNC(=O)C1=CC(C)(C)N([O])C1(C)C)C(N)=O)C(C)C; listed as Homo sapiens) [shielding peptide]
Barrier function when challenged with LPS ([2]; in vitro, LPS challenge): preserved
PKG-Iα activity against peroxynitrite (Recombinant human PKG-Iα; SIN-1 200 μM, 10 min, shielding peptide 0-10 μg): preserves; also recorded: dose-dependently preserved
Physiologic PKG-Iα activity (Recombinant human PKG-Iα; in vitro): did not alter

HRKKRRQRRRQFPVFVPTVF (SEQ ID NO:35) (listed as Homo sapiens) [NipR1F, control peptide in which Y34 was substituted with a phenylalanine residue]
Increase in total protein nitration induced by LPS (HLMVEC): unaffected
Basal RhoA nitration levels in mouse lung (RhoA [5]; peptide alone, no LPS): unchanged
Total RhoA protein levels in mouse lung (RhoA [5]; peptide i.p. 0.1 mg/kg, with or without LPS): Neither peptide nor LPS treatment altered
Interaction between RhoA and biotinylated peptide (RhoA [6]): strong interaction

CCSC(=N)N [ETU]
Attenuation of LPS-mediated decrease in transendothelial resistance (TER) / barrier disruption [2]: attenuated
